The target of one assay is HLA-E-VL9 complex (Homo sapiens, HLA-E*01:03, strain). The assay can be described thus: BLI. (In general: BLI is a label-free optical method that tracks binding on a fibre tip over time.)
The target in assay [1] is HLA-E-… single chain trimer on transfected 293T cells (Homo sapiens HLA-E*01:03 assumed; …). The experiment in a line: flow cytometry on cells. Background: A flow cytometer gives signals particle by particle.
Assay [2] concerns the target HLA-E-[…] single chain trimer on transfected 293T cells (Homo sapiens HLA-E*01:03 assumed; …). The experiment in a line: flow cytometry on cells.

Changes are numbered by the printed parent chain.

B1: 3H4v31 IgG1 (antibody, V domains shown)
VH: EVQLQESGPELVKPGASVKIPCKASGYTFTDYNMDWVKQSHGKSLEWIGDINPNNGGTIYNQKFKGKATLTVDKSSSTAYMELRSLTSEDTAVYYCARPDSAQYRWNWYFDVWGTGTTVTVSS
VL: DIVITQSPSSMYASLGERVTITCKASQDINSYLSWFQQKPGKSPKTLIYRANRLVDGVPSRFSGSGSGQDYSLTISSLEYEDMGIYYCLQYDEFPLTFGAGTKLELK
What is called Kd is the concentration at which binding is half-saturated. Read a high Kd as a looser complex. B1 gave a Kd with HLA-E-VL9 complex of 11.5 nM.

B2: wildtype 3H4 IgG1 (antibody, V domains shown)
VH: B1 VH with S101Y, A102Y, Q103G, Y104S, R105S, W106Y, N107G
VL: B1 VL
As for B2, the binding result in assay [1] and in assay [2] was “binds” throughout.

These data come from paper doi:10.1101/2024.07.08.602401 (bioRxiv, 2024).
